# The supplement of paper PMC12042874
# ± gives the uncertainty stated by the source.
# Test: amyloid nucleation score (Sup35N fusion, yeast selection) (log enrichment); library NNK2; higher = more nucleation; inactive = no reads after selection
# In short: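 The nucleation score is the log enrichment of output over input reads, calculated with DiMSum and centred on the mode score of non-aggregating sequences. Sequences with under 100 input reads were excluded. Reads came from Illumina sequencing of plasmid inserts from psi-negative yeast expressing Sup35N fused to peptides of 20 random codons, induced 24 hours with 100 μM copper sulfate and grown 7 days at 30°C without adenine and uracil.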
row,Substance,amyloid nucleation score
1,LLCSPEGVYGKCTGGFRQTL,0.581 ± 0.39
2,VWQFRCGERMTKCLLWGDYG,0.072 ± 0.31
3,MSVSLLSDIN,-0.497 ± 1
4,YEGNFAHCFSLGPDHVID,-0.202 ± 1.1
5,SLSNCSTWTSF,0.02 ± 1
6,CSLFYRSS,4.06 ± 0.056
7,DVVCRMRATYCWALRVMGQR,1.58 ± 0.29
8,FARSFPRFRTESFDCKECRG,inactive
9,RPGHYRTWYFSGFYSSPCQT,1.49 ± 0.19
10,HNVEGRDRVVLMFSIKCCML,5.92 ± 0.061
11,ALWTLNDSSPDYKSPYTGGS,0.508 ± 0.6
12,MHRFRMSLVLRRGSGLVGWF,-0.081 ± 1.1
13,KNGATLSCYILYSCGLMASV,-2.34 ± 0.62
14,TRCGMEAYMSLDMGLYERPM,-0.762 ± 0.41
15,ILFLVNLFSLSIANVFR,inactive
16,SVSIPCNNCCRLLCRMFKLC,-0.716 ± 0.28
17,LCSRFALWVRKF,-0.291 ± 0.63
18,RNCTRFPWSIM,0.131 ± 1
19,EELAPSCAEDEILILSMLIN,-0.592 ± 0.76
20,VNGHLNFAS,0.712 ± 0.56
21,VIIRSFR,-0.629 ± 0.34
22,QHWRLNWNEDFFMYWYGFLT,-0.655 ± 0.41
23,ERSNFWPRVQTPCESVA,0.016 ± 1.1
24,KYMLLCSICIFRNQGKKFRL,8.384 ± 0.052
25,LLSTDESCSTLNIYCIYTPR,8.139 ± 0.045

row,Substance,amyloid nucleation score
1,RYASDFWILNICAGDIVILL,8.495 ± 0.054
2,NSFTLKCSKGVGYKALHLGT,2.9 ± 0.097
3,TVLLMIMMYFIANSFYVACG,5.89 ± 0.066
4,CINVYKY,6.768 ± 0.026
5,QSRSRIGFGQCGRFGTAWWV,0.605 ± 0.45
6,TDANESDR,0.905 ± 0.36
7,FMPSVFMYSLVVFRYVVYMS,-1.07 ± 0.78
8,YTDLG,0.563 ± 0.44
9,DMRFYMVLA,4.94 ± 0.051
10,YMSFPLDVLVICLCRIVIES,0.089 ± 1.1
11,WAVELLLA,1.03 ± 0.53
12,GQSLLLEPSGWVSSDIKMKG,0.153 ± 0.79
13,NSNLNYPECWEEWTLNHFTD,inactive
14,DMYWCIYDRFMSLSWKT,-0.597 ± 0.53
15,DYMFIDLASSNTNLRSWSHS,-0.408 ± 0.37
16,DARSDVF,inactive
17,ITMSQNSWNFRHDGTLVGLK,0.377 ± 0.3
18,VFSEWWFTANAACSAQCYEW,0.789 ± 0.33
19,IKDMTKVIATGFCLCITLVC,0.592 ± 0.66
20,KTPVGYTRRGSPFTR,1.16 ± 0.33
21,IVFSDLTITF,3.29 ± 0.11
22,GMICKWAWVSTGGKGVKCRE,0.272 ± 0.43
23,PSNNIFSLLFLVLKHFIDMR,inactive
24,FMRQMLLVLMPWCQRRWACL,-0.382 ± 0.32
25,MESRILRNIYFCLTCKPSQW,2.24 ± 0.17

row,Substance,amyloid nucleation score
1,VLRLRGLRRWI,0.638 ± 0.23
2,EITEDSMVLVRWSGARNFHM,2.56 ± 0.15
3,SSTIITSLTHFCSTGDWEVV,-0.434 ± 0.24
4,QSVQFRWRLCLAGFVGTGWR,3.06 ± 0.089
5,GMCYGGKFDY,-0.356 ± 0.33
6,ANNICCGASEKYGRWASTID,-0.76 ± 1
7,NMPMQSYTIMVWSLQGMAAG,0.705 ± 0.56
8,CDQYLIYNLSVSGMSIASRG,-0.497 ± 0.79
9,IQVLVLPISYISIRGQKWRN,7.19 ± 0.08
10,RKCSGNAMRSLCSDPVRCVK,0.669 ± 0.32
11,QSVLSLSGLYGHDLREGLL,-0.387 ± 0.49
12,SLILDNVDEGQSFSMGVCLG,0.462 ± 0.66
13,PSGNQELLGTMTWIRKVTQS,-0.86 ± 0.34
14,RNIVDISSNVRCWLGRPAIS,3.27 ± 0.066
15,LSFFGRDDLNRLHN,-1.41 ± 1.1
16,WYNCSALWESLMFNGLQAVW,-0.268 ± 0.48
17,LIRPSLPSS,0.807 ± 0.28
18,CVMNF,-0.586 ± 0.42
19,GKQTP,-0.711 ± 0.45
20,VEARKLYQCMCVVRC,-0.143 ± 0.28
21,YDVSYYCNCIAVLKSRLREL,5.203 ± 0.031
22,FFYYMRSIT,-1.9 ± 0.78
23,RKAMRYVVCDRRPMCYRNSW,0.752 ± 0.43
24,SISALLFIPAHRTIMAG,-1.69 ± 1.1
25,PAMSVHGNSAESTYVIMHYF,-0.494 ± 0.54

row,Substance,amyloid nucleation score
1,LWFYFFRDYLIGPMWNKIVI,-0.898 ± 1.1
2,KVIWIRCLFLYMCWAAHG,-0.557 ± 0.78
3,LLVKRCSAKPNLRRLLKLMC,-0.097 ± 0.76
4,YICLAVGDVNGEMNYWVIRG,6.865 ± 0.043
5,YGVGMVWMVIECEEVGYVRR,0.683 ± 0.16
6,LTRYLLWLLVESGFLGRSGV,-0.21 ± 0.79
7,GRRFLYKPAKTWYVVWHRGL,0.229 ± 0.49
8,GSVFSKHQGSFVFSLQQLGL,-1.43 ± 0.34
9,RAVHARYLL,1.86 ± 0.15
10,ISERKCCKVLYISAIRVLNF,0.034 ± 1.1
11,NISSLSNNARVIVYFCVRYQ,inactive
12,DANLQIH,-0.774 ± 0.45
13,KFYIPSDLVLVRCPST,-0.883 ± 1.1
14,EDELSPF,0.453 ± 0.18
15,IRLVHSNVEIWGSDLVFHRG,6.196 ± 0.04
16,IFNVRRVLHFIIYVSDIPLD,-1.89 ± 0.78
17,LHAIHSFDWPTSLIVYHP,inactive
18,NNAMWSWSS,-0.039 ± 0.41
19,QDYTDHPGIIFSFRGCSRDT,inactive
20,MCMGFRRPLTRTFFRTLCAR,0.684 ± 0.54
21,NMFGLPKLVLSDLVVRV,1.72 ± 0.15
22,QWVVTRDFVE,-0.041 ± 0.63
23,ASPFRF,0.816 ± 0.74
24,KYNLRDSNCSTCMFGSSRVS,4.251 ± 0.04
25,DVAYSYRHECIADKLLRVEH,0.019 ± 0.55

row,Substance,amyloid nucleation score
1,YLSIFRVLSIFCVWLHTVGN,inactive
2,FSPLCYSYV,-1.22 ± 1
3,PGILDNRLGKQGAGLDLRWH,1.17 ± 0.24
4,LVLAASTFQYSGRGYASDML,1.49 ± 0.29
5,NQGLRWLTDRDILRIVEVGM,0.027 ± 0.65
6,TLLDKLK,inactive
7,MLRGSRWPSSGTFSCDDSKR,-0.038 ± 0.45
8,VEGTPMFVWINWGVGKVGQS,3.42 ± 0.051
9,FSSIDPPNTRSAVSFRMTSP,0.065 ± 0.65
10,DYWFRGAESCTCGLE,0.012 ± 0.63
11,ISVGGLSHMGTVGSLMKVTQ,-0.023 ± 0.29
12,MGSLSHYRAQDRLREQLWLW,0.458 ± 0.19
13,HYFRIAIL,-0.667 ± 0.45
14,TAVCKISPQQWAGCHLIHRH,5.3 ± 0.095
15,ADQSYLRNCIFWRQMILTRY,-0.193 ± 0.39
16,VKRYDS,inactive
17,SKPCGKVIYWKDRLSKLSEK,inactive
18,LCFFT,0.383 ± 0.74
19,SLGPRRSCCTIWKVWAYAGS,0.241 ± 0.42
20,VNSLYCM,-0.447 ± 1.1
21,FYLLVFDLHDSCL,inactive
22,KILNCTGSQVKS,-0.032 ± 0.25
23,GRKLNFGQAFLWLYQVCWFM,inactive
24,LDIYYMMYYFRFSWD,-2.64 ± 0.75
25,VQSTRIISCVLCLGDWLEDY,10.19 ± 0.022

row,Substance,amyloid nucleation score
1,FWCYELDNPDGYLIFLHQPV,inactive
2,VRTTYYNELETFLVLTPAMR,1.36 ± 0.22
3,GEKTVLVYMVG,4.9 ± 0.07
4,VFGSEVSNIRRESWRSLIGQ,0.756 ± 0.18
5,FKAERSFLLSRYILKREGSQ,-0.972 ± 0.34
6,NLCDLDRGNEYAWWRVFMRS,4.38 ± 0.11
7,VWYIALLQCQVRITYKGRVR,5.43 ± 0.073
8,SIIWQRLLGIFNFLGAPESM,inactive
9,NDCRMFRELTYVPHRERC,0.708 ± 0.49
10,RVASVSYVSVWYEMCQCFRG,9.503 ± 0.082
11,CCFTGIKGSYCFSWLACG,-0.082 ± 0.3
12,RFCWC,7.365 ± 0.042
13,LKSSWPFDVKKAYKCYVKFA,0.006 ± 0.65
14,SKDLSISQWSLGWLCHVWHT,-0.153 ± 0.79
15,LCSSKETDMPFLVLQSLKSN,-0.791 ± 0.78
16,AMWESLP,1.41 ± 0.25
17,RYGPIWGYCNKLFWARCTQL,0.2 ± 0.49
18,KAKWFNFLFYNFLQYACLSQ,1.37 ± 0.087
19,MSAMPDWFPLQWNWRLGQVL,1.33 ± 0.18
20,QLPAHFFGLFCLFP,-1.41 ± 0.73
21,STCVGEYLHCSLSCAGMVLL,6.593 ± 0.049
22,CLPFYCTFGSVVARAGVYH,inactive
23,SRRFFQKIRLWGMTDQQKGM,3.08 ± 0.072
24,IRCCVQFIQLSQGNNVWVRS,6.07 ± 0.081
25,TVQDMFIFIFYVYNSFGRYM,3.35 ± 0.052

row,Substance,amyloid nucleation score
1,GNGLFSVFYIFYAAGKRSVC,0.394 ± 0.62
2,KGDQKSTFCVRPFWESPNIV,-0.046 ± 0.74
3,ALFMDPFAVTLMRGL,0.137 ± 0.54
4,YFYNGSRA,-1.61 ± 1.1
5,IFCADMVLNFGGMCPARERA,0.038 ± 0.8
6,WNGYNGRDMCGKLCGVCTLG,0.219 ± 0.43
7,SISIACCA,6.991 ± 0.031
8,KTREFNEQIVYGASVYVYQG,0.672 ± 0.43
9,AMSECQHKMQWAAFSVFPGQ,5.91 ± 0.089
10,VVIHLLPSES,inactive
11,FGNFLLSITII,2.4 ± 0.062
12,FNMFWVLGFTSRGTRGYSTS,3.9 ± 0.051
13,LVSYQVFSWSEPENSV,-0.239 ± 0.79
14,YLLYSNRQISYTFYCDDTVC,inactive
15,FNSRL,-0.208 ± 1
16,LWGMGGAWEPERETLVV,-0.268 ± 0.63
17,CEMLCQTIHSTLTWGIRRLS,1.12 ± 0.46
18,SYWKTSKCMTKLLGCNM,-0.243 ± 0.45
19,SQSHNIYQ,3.46 ± 0.14
20,TMGGSGDGRY,inactive
21,RLNCACFRADTVGDYLGVRL,-0.158 ± 0.29
